From patent US20150344570A1 (published 2015)

B1: GpH7-B3 variant I336_13S/GpL16-k0 (antibody, human IgG1, kappa)
heavy: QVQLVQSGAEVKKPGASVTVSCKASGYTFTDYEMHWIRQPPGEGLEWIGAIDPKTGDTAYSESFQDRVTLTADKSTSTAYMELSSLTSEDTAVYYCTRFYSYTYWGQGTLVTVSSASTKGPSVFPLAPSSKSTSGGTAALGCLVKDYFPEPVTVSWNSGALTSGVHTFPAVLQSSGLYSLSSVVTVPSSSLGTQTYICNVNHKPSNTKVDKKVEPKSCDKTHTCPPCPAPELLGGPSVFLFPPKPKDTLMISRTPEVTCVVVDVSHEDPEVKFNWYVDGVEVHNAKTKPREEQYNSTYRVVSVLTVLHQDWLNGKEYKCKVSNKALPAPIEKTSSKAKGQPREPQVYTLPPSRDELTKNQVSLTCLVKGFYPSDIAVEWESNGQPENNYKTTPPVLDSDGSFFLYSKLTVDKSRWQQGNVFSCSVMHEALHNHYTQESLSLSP
light: DIVMTQSPLSLPVTPGEPASISCQASESLVHSNRNTYLHWYLQKPGQSPQLLIYKVSNRFSGVPDRFSGSGSGTDFTLKISRVEAEDVGVYYCSQNTHVPPTFGQGTKVEIERTVAAPSVFIFPPSDEQLKSGTASVVCLLNNFYPREAKVQWKVDNALQSGNSQESVTEQDSKDSTYSLSSTLTLSKADYEKHKVYACEVTHQGLSSPVTKSFNRGEC
notes: also called Ho Ab I336_13S
B2: GpH7-B3 variant K326_08L/GpL16-k0 (antibody, human IgG1, kappa)
heavy: not shown
light: B1 light
notes: also called Ho Ab K326_08L
B3: GpH7-B3 variant I336_18N/GpL16-k0 (antibody, human IgG1, kappa)
heavy: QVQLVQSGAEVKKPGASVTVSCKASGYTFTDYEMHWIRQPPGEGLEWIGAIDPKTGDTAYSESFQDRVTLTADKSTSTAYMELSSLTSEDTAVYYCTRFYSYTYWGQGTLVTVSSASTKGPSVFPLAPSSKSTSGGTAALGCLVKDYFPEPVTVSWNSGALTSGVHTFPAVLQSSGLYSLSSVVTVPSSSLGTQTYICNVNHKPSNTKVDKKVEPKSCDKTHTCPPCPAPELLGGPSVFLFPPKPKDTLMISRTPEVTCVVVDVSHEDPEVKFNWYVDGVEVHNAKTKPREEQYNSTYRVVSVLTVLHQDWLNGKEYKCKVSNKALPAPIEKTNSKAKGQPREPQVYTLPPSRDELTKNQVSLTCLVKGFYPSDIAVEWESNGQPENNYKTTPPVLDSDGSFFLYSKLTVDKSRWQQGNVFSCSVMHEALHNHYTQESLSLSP
light: B1 light
notes: also called Ho Ab I336_18N
B4: GpH7-B3 variant I336_02A/GpL16-k0 (antibody, human IgG1, kappa)
heavy: not shown
light: B1 light
notes: also called Ho Ab I336_02A
B5: GpH7-B3 variant K334_07I/GpL16-k0 (antibody, human IgG1, kappa)
heavy: not shown
light: B1 light
notes: also called Ho Ab K334_07I
B6: GpH7-B3 variant I332_13S/GpL16-k0 (antibody, human IgG1, kappa)
heavy: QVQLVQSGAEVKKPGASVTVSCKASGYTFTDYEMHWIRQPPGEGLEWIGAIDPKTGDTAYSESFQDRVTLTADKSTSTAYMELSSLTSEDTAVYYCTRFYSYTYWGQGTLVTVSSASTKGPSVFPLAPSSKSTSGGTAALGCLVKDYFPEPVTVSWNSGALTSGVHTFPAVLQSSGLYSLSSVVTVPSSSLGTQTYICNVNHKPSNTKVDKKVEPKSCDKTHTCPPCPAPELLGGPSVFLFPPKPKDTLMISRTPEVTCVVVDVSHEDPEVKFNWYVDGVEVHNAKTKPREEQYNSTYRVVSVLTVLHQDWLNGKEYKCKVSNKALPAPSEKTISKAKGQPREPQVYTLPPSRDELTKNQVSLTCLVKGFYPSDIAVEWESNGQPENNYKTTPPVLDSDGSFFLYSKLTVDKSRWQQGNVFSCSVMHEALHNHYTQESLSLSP
light: B1 light
notes: also called Ho Ab I332_13S
B7: GpH7-B3 variant K326_15Y/GpL16-k0 (antibody, human IgG1, kappa)
heavy: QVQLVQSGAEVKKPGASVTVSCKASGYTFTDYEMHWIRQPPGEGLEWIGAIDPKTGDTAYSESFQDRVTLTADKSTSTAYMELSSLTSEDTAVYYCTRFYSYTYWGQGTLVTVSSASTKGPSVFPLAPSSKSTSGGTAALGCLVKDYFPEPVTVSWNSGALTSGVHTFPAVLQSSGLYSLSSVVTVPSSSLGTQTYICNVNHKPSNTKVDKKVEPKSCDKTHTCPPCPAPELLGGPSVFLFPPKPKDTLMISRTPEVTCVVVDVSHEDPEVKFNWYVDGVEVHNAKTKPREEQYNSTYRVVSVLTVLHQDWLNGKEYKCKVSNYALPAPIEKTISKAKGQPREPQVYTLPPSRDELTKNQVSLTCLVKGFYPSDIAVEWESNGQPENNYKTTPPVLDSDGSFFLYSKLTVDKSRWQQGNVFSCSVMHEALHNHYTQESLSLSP
light: B1 light
notes: also called Ho Ab K326_15Y
B8: GpH7-B3 variant K326_03V/GpL16-k0 (antibody, human IgG1, kappa)
heavy: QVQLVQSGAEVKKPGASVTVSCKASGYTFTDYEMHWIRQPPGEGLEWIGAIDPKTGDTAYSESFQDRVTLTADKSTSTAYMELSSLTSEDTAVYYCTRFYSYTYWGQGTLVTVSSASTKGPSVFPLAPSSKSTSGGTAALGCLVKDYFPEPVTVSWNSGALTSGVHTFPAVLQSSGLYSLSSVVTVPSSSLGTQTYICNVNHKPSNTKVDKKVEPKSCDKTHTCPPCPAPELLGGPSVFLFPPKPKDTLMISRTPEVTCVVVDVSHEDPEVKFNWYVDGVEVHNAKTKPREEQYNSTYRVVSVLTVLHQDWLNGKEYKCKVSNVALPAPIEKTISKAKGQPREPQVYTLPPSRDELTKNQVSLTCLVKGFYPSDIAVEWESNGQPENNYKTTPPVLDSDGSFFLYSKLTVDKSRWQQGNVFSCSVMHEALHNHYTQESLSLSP
light: B1 light
notes: also called Ho Ab K326_03V
B9: GpH7-B3 variant I336_03V/GpL16-k0 (antibody, human IgG1, kappa)
heavy: not shown
light: B1 light
notes: also called Ho Ab I336_03V
B10: GpH7-B3 variant A330_08L/GpL16-k0 (antibody, human IgG1, kappa)
heavy: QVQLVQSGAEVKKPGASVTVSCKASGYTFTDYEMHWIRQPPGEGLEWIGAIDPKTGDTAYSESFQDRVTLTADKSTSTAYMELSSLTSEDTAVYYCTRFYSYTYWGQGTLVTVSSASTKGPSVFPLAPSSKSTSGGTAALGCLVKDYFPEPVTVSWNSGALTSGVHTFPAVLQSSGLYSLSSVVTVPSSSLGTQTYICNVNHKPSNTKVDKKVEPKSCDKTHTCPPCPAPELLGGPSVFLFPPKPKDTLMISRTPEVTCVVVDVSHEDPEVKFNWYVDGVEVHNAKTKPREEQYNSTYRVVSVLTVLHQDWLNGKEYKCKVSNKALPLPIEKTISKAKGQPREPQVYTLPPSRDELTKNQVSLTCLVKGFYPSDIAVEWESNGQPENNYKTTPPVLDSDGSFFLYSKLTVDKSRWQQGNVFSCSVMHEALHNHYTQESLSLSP
light: B1 light
notes: also called Ho Ab A330_08L
B11: GpH7-B3 variant K326_07I/GpL16-k0 (antibody, human IgG1, kappa)
heavy: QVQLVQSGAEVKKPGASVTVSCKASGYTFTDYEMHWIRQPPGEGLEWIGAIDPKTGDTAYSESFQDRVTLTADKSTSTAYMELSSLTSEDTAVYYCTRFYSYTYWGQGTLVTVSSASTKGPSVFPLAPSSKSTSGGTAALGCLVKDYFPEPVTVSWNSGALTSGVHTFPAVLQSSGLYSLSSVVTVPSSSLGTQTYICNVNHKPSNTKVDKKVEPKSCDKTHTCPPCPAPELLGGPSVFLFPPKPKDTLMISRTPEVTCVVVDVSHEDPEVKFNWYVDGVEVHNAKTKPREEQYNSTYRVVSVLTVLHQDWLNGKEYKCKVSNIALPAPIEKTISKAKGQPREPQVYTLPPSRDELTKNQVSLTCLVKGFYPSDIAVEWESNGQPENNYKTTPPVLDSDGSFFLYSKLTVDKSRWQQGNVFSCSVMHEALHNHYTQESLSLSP
light: B1 light
notes: also called Ho Ab K326_07I
B12: GpH7-B3 variant K326_09D/GpL16-k0 (antibody, human IgG1, kappa)
heavy: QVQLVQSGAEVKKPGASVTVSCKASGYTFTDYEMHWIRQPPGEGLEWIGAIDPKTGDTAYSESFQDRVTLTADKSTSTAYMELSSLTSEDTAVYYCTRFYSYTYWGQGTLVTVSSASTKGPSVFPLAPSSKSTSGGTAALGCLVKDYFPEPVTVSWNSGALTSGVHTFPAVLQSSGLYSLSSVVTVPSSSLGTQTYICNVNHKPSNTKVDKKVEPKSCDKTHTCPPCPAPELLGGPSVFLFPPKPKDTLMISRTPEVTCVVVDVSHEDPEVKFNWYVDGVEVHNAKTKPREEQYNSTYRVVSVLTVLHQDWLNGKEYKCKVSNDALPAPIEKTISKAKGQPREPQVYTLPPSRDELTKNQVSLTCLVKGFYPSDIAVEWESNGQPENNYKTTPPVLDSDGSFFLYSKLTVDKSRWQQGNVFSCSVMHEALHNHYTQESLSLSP
light: B1 light
notes: also called Ho Ab K326_09D
B13: GpH7-B3 variant I336_14T/GpL16-k0 (antibody, human IgG1, kappa)
heavy: not shown
light: B1 light
notes: also called Ho Ab I336_14T
B14: GpH7-B3 variant H268_10E/GpL16-k0 (antibody, human IgG1, kappa)
heavy: not shown
light: B1 light
notes: also called Ho Ab H268_10E
B15: GpH7-B3 variant I332_15Y/GpL16-k0 (antibody, human IgG1, kappa)
heavy: not shown
light: B1 light
notes: also called Ho Ab I332_15Y
B16: GpH7-B3 variant I332_14T/GpL16-k0 (antibody, human IgG1, kappa)
heavy: not shown
light: B1 light
notes: also called Ho Ab I332_14T
B17: GpH7-B3 variant K334_03V/GpL16-k0 (antibody, human IgG1, kappa)
heavy: not shown
light: B1 light
notes: also called Ho Ab K334_03V
B18: GpH7-B3 variant K326_14T/GpL16-k0 (antibody, human IgG1, kappa)
heavy: not shown
light: B1 light
notes: also called Ho Ab K326_14T
B19: GpH7-B3 variant H268_09D/GpL16-k0 (antibody, human IgG1, kappa)
heavy: not shown
light: B1 light
notes: also called Ho Ab H268_09D
B20: GpH7-B3 variant K326_10E/GpL16-k0 (antibody, human IgG1, kappa)
heavy: not shown
light: B1 light
notes: also called Ho Ab K326_10E
B21: GpH7-B3 variant I336_09D/GpL16-k0 (antibody, human IgG1, kappa)
heavy: not shown
light: B1 light
notes: also called Ho Ab I336_09D
B22: GpH7-B3 variant I332_09D/GpL16-k0 (antibody, human IgG1, kappa)
heavy: not shown
light: B1 light
notes: also called Ho Ab I332_09D
B23: GpH7-B3 variant K334_02A/GpL16-k0 (antibody, human IgG1, kappa)
heavy: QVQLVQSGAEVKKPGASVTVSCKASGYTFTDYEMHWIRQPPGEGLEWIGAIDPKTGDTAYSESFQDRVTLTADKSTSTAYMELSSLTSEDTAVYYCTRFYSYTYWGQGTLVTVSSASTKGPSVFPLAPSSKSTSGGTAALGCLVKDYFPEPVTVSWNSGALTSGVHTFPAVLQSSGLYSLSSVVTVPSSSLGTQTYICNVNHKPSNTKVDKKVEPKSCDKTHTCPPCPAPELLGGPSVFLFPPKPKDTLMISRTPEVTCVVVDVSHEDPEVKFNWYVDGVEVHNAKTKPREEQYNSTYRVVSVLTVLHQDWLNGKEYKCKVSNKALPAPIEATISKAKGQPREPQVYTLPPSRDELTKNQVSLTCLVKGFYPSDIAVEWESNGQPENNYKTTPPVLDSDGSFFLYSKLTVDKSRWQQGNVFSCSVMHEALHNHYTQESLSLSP
light: B1 light
notes: also called Ho Ab K334_02A
B24: GpH7-B3 variant K326_19Q/GpL16-k0 (antibody, human IgG1, kappa)
heavy: not shown
light: B1 light
notes: also called Ho Ab K326_19Q
B25: GpH7-B3 variant I332_02A/GpL16-k0 (antibody, human IgG1, kappa)
heavy: not shown
light: B1 light
notes: also called Ho Ab I332_02A
B26: GpH7-B3 variant K326_06M/GpL16-k0 (antibody, human IgG1, kappa)
heavy: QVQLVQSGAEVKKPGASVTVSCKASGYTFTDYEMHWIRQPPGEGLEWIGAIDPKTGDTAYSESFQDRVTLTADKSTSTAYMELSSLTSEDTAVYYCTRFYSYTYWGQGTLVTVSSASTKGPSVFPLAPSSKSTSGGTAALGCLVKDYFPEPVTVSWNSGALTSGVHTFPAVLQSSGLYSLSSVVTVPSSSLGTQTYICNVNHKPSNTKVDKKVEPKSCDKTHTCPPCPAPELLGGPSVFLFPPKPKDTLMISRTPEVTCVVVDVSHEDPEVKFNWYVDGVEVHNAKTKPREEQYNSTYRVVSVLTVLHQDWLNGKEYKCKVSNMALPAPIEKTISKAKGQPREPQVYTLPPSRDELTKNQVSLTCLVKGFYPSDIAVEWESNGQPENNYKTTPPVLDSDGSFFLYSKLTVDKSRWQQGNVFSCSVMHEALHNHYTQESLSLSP
light: B1 light
notes: also called Ho Ab K326_06M
B27: GpH7-B3 variant I332_19Q/GpL16-k0 (antibody, human IgG1, kappa)
heavy: not shown
light: B1 light
notes: also called Ho Ab I332_19Q

What follows are binders tested against T1, FcγRIIIa extracellular domain with C-terminal His tag (human, UniProt P08637 17-208) (assay: SPR Biacore, captured antibody, FcγR analyte, relative binding).
T1 construct: extracellular domain; also called FcgRIIIa; 3a; not shown: His tag attached to the C terminus
T1 sequence (P08637 17-208): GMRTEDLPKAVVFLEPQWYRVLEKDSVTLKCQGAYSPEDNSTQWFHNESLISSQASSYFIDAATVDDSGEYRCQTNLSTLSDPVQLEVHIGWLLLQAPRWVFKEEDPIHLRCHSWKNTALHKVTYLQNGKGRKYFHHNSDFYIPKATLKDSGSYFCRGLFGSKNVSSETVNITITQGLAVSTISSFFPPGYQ
Description: Analysis of interaction between objective antibody and the FcγR was carried out using Biacore T100 (GE Healthcare). HBS-EP+ (GE Healthcare) was used as the running buffer, and the measurement temperature was set to 25° C. Chips produced by immobilizing the antigen peptide by the amine coupling method to a Series S Sencor Chip CM5 (GE Healthcare), or alternatively, chips produced by allowing preliminarily biotinylated antigen peptides to interact with and immobilize onto a Series S Sensor Chip SA (certified) (GE Healthcare) were used. Antibodies of interest were captured onto an antigen peptide-immobilized chip, and allowed to interact to each FcγR diluted with running buffer. To regenerate and repeatedly use the chip, the antibodies captured on the chip were washed off by reacting 10 mM glycine-HCl, pH 1.5.

Ho/Con_3a | Binder
119 % of HoCon Ab GpH7-B3/GpL16-k0 (=100) | B1
114 % of HoCon Ab GpH7-B3/GpL16-k0 (=100) | B2
101 % of HoCon Ab GpH7-B3/GpL16-k0 (=100) | B3
104 % of HoCon Ab GpH7-B3/GpL16-k0 (=100) | B4
180 % of HoCon Ab GpH7-B3/GpL16-k0 (=100) | B5
112 % of HoCon Ab GpH7-B3/GpL16-k0 (=100) | B6
115 % of HoCon Ab GpH7-B3/GpL16-k0 (=100) | B7
137 % of HoCon Ab GpH7-B3/GpL16-k0 (=100) | B8
110 % of HoCon Ab GpH7-B3/GpL16-k0 (=100) | B9
138 % of HoCon Ab GpH7-B3/GpL16-k0 (=100) | B10
134 % of HoCon Ab GpH7-B3/GpL16-k0 (=100) | B11
163 % of HoCon Ab GpH7-B3/GpL16-k0 (=100) | B12
123 % of HoCon Ab GpH7-B3/GpL16-k0 (=100) | B13
206 % of HoCon Ab GpH7-B3/GpL16-k0 (=100) | B14
106 % of HoCon Ab GpH7-B3/GpL16-k0 (=100) | B15
138 % of HoCon Ab GpH7-B3/GpL16-k0 (=100) | B16
170 % of HoCon Ab GpH7-B3/GpL16-k0 (=100) | B17
147 % of HoCon Ab GpH7-B3/GpL16-k0 (=100) | B18
220 % of HoCon Ab GpH7-B3/GpL16-k0 (=100) | B19
157 % of HoCon Ab GpH7-B3/GpL16-k0 (=100) | B20
111 % of HoCon Ab GpH7-B3/GpL16-k0 (=100) | B21
255 % of HoCon Ab GpH7-B3/GpL16-k0 (=100) | B22
154 % of HoCon Ab GpH7-B3/GpL16-k0 (=100) | B23
118 % of HoCon Ab GpH7-B3/GpL16-k0 (=100) | B24
114 % of HoCon Ab GpH7-B3/GpL16-k0 (=100) | B25
129 % of HoCon Ab GpH7-B3/GpL16-k0 (=100) | B26
118 % of HoCon Ab GpH7-B3/GpL16-k0 (=100) | B27
